# Results: article PMC5007448, “Molecular logic of the Zur-regulated zinc deprivation response in Bacillus subtilis”
# B1: PzinT (dsDNA)
# DNA 1: ATGTATGTATAATAAATCGTAATGTTTTCGATTTAATAAAAAAGG
# DNA 2: CCTTTTTTATTAAATCGAAAACATTACGATTTATTATACATACAT
# B2: PznuA (dsDNA)
# DNA 1: ATTTATTCTTGCAAAACGTAATGACTTCGGTTTATTATGATATAG
# DNA 2: CTATATCATAATAAACCGAAGTCATTACGTTTTGCAAGAATAAAT
# B3: PfolEB (dsDNA)
# DNA 1: ACCGATCAAAATAAATAGTAATTATTACGATTTGTTAGTGAGAGG
# DNA 2: CCTCTCACTAACAAATCGTAATAATTACTATTTATTTTGATCGGT
# B4: PrpsNB (dsDNA)
# DNA 1: GAATGATACATTTTAAATCGTAACAATTTCGATTTAAAGGGAGGC
# DNA 2: GCCTCCCTTTAAATCGAAATTGTTACGATTTAAAATGTATCATTC
# B5: PyciC (dsDNA)
# DNA 1: ACCATACAATTTAAGTCGTAACAATTACGTTTTATGATAAATGGC
# DNA 2: GCCATTTATCATAAAACGTAATTGTTACGACTTAAATTGTATGGT
# B6: PrpmEB (dsDNA)
# DNA 1: GTAAGGTTATAAAATAAAACGTAATTATTACGATTTATTGAAAGG
# DNA 2: CCTTTCAATAAATCGTAATAATTACGTTTTATTTTATAACCTTAC
# What was measured:
# Test in all cases: EMSA; 0.1 uM ZnSO4; 20 mM Tris-HCl pH 6.4, 50 mM KCl, 1 mM DTT, 0.1 mg/ml BSA, 5% glycerol, 0.1 ug poly(dI-dC) in 20 ul, 0.1 uM ZnSO4; room temperature 20 min; gel at 4 C in TA pH
# Conditions in all cases: protein: recombinant; tags: none stated; chain copies: 2; label: 5'-32P; blunt
# Zur H124A = Zur H124A (Bacillus subtilis, UniProt P54479 1-145, H124A)
# Zur WT (BsZur) = Zur WT (BsZur) (Bacillus subtilis, UniProt P54479 1-145)
# Zur C84S = Zur C84S (Bacillus subtilis, UniProt P54479 1-145, C84S)
binder,measurement,setting,value
B1,Kd,Zur H124A,96 ± 1.3 nM
same,Kd,Zur WT (BsZur),15.6 ± 3.5 nM
same,Kd,Zur C84S,75.5 ± 5.3 nM
B2,Kd,Zur H124A,110 ± 3 nM
same,Kd,Zur WT (BsZur),12.5 ± 4 nM
same,Kd,Zur C84S,73 ± 2 nM
B3,Kd,Zur H124A,100 ± 4 nM
same,Kd,Zur WT (BsZur),21.9 ± 3.9 nM
same,Kd,Zur C84S,28.6 ± 2.5 nM
B4,Kd,Zur H124A,99 ± 1.6 nM
same,Kd,Zur WT (BsZur),14.3 ± 2.5 nM
same,Kd,Zur C84S,16.5 ± 2.5 nM
B5,Kd,Zur H124A,129 ± 3.8 nM
same,Kd,Zur WT (BsZur),25.4 ± 1.1 nM
same,Kd,Zur C84S,80.6 ± 3.2 nM
B6,Kd,Zur H124A,101 ± 2.3 nM
same,Kd,Zur WT (BsZur),14.3 ± 2.6 nM
same,Kd,Zur C84S,77.9 ± 4 nM
